{"source": "patent US20240016847A1", "about": "(TRUSTEES OF COLUMBIA UNIVERSITY IN THE CITY OF NEW YORK, published 2024)", "binders": {"B1": {"name": "GFP specific ProCAR construct (GFP28z): sfGFP-binding nanobody, IgG4 hinge, CD28 transmembrane and intracellular domains, CD3zeta signaling domain (receptor)", "chain": "QVQLQESGGGSVQAGGSLKLSCAASGGAYRNACMGWFRQAPGKEREGVAIINSVDTTYYADPVKGRFTISRDNAKSTVYLLMNSLKPEDTAIYYCAQVARVVCPGDKLGASGYNYWGQGTQVTVSSGSESKYGPPCPCPAFWVLVVVGGVLACYSLLVTVAFIIFWVRSKRSRLLHSDYMNMTPRRPGPTRKHYQPYAPPRDFAAYRSLRVKFSRSADAPAYQQGQNQLYNELNLGRREEYDVLDKRRGRDPEMGGKPRRKNPQEGLYNELQKDKMAEAYSEIGMKGERRRGKGHDGLYQGLSTATKDTYDALHMQALPPR"}}, "key": {"[1]": {"biological_target": "sfGFP linked to the PlGF123-144 peptide sequence with a flexible glycine-serine linker at the C-terminus …", "test": "cell-based or functional assay"}, "[2]": {"biological_target": "sfGFP with a cysteine substitution at position D117 (D117C synthetic antigen) (Aequorea victoria (Water jellyfish) …, UniProt P42212 2-238 = GFP)", "test": "cell-based or functional assay"}}, "data": [{"binder": "B1", "values": [{"measurement": "SA-driven fold expansion of GFP28z", "setting": "[1]", "result": 8, "unit": "fold"}, {"measurement": "viability of GFP28z T cells after 24 hr with 500 ng/mL PlGF-SA, relative to untreated controls", "setting": "[1]", "result": "~72 % of untreated controls"}, {"measurement": "SA-driven fold expansion of GFP28z", "setting": "[2]", "result": 8, "unit": "fold"}]}]}
